Assays:
Settings in all cases: both partners purified
[1] = biological target: T1, c-di-GMP phosphodiesterase ProE (Pseudomonas aeruginosa, UniProt Q9HTQ9 1-558); test: SPR; Biacore T200, 25°C, PBST pH 7.4; PqsE amine-coupled on CM5 chip, ProE injected with 100 µM c-di-GMP
T1 construct: ProE, c-di-GMP phosphodiesterase of Pseudomonas aeruginosa PAO1; also called PDE ProE
T1 sequence: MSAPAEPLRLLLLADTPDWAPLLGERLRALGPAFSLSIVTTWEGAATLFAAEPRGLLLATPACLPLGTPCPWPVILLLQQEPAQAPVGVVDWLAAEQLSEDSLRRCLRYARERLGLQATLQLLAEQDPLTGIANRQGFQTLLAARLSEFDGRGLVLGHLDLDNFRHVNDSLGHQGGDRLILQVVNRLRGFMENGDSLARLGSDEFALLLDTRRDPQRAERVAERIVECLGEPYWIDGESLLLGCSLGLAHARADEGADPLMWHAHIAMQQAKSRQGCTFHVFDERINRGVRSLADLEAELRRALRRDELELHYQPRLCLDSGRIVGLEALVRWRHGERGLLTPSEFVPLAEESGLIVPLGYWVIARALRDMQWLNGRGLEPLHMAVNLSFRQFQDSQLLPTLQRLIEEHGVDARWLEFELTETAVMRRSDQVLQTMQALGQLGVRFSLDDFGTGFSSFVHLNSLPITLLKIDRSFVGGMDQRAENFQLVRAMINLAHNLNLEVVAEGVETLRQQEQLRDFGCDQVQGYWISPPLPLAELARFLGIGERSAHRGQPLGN

[2] = biological target: T1, c-di-GMP phosphodiesterase ProE; test: SPR; Biacore T200, 25°C, PBST pH 7.4; PqsE amine-coupled on CM5 chip, ProE injected with 10 mM Mg2+
[3] = biological target: T1, c-di-GMP phosphodiesterase ProE; test: SPR; Biacore T200, 25°C, PBST pH 7.4; PqsE amine-coupled on CM5 chip (8,000 RU), ProE injected; 1:1 Langmuir or steady-state affinity model
[4] = biological target: T1, c-di-GMP phosphodiesterase ProE; test: ITC; MicroCal VP-ITC, 25°C; ProE (printed 'Thirty micrometers') in the cell titrated with 300 µM PqsE; PBS with 5 mM β-mercaptoethanol; single set of identical sites model

B1: PQS quorum sensing protein PqsE (natural protein)
chain: MLRLSAPGQLDDDLCLLGDVQVPVFLLRLGEASWALVEGGISRDAELVWADLCRWVADPSQVHYWLITHKHYDHCGLLPYLCPRLPNVQVLASERTCQAWKSESAVRVVERLNRQLLRAEQRLPEACAWDALPVRAVADGEWLELGPRHRLQVIEAHGHSDDHVVFYDVRRRRLFCGDALGEFDEAEGVWRPLVFDDMEAYLESLERLQRLPTLLQLIPGHGGLLRGRLAADGAESAYTECLRLCRRLLWRQSMGESLDELSEELHRAWGGQSVDFLPGELHLGSMRRMLEILSRQALPLD
notes: PqsE of the PQS quorum sensing system, Pseudomonas aeruginosa PAO1; DNA fragment encoding pqsE cloned into pET28b(+); source: E. coli BL21(DE3), pET28b(+), purified (Ni-NTA)
B1 gave a Kd [1] of 2210 nM, a Kd [2] of 2270 nM and a Kd [3] of 3210 nM. For the same binder, the Kd [4] was 5460 nM.

Reference: PMC11852716, “c-di-GMP phosphodiesterase ProE interacts with quorum sensing protein PqsE to promote pyocyanin production in Pseudomonas aeruginosa” (mSphere, 2025)
